Molecular target: purified recombinant Ep-CAM produced in insect cells (UniProt P16422)
Test: SPR (BIAcore), Ep-CAM coupled to CM5 chip, control antibody

Sequence of purified recombinant Ep-CAM produced in insect cells (P16422 24-265 limits assumed): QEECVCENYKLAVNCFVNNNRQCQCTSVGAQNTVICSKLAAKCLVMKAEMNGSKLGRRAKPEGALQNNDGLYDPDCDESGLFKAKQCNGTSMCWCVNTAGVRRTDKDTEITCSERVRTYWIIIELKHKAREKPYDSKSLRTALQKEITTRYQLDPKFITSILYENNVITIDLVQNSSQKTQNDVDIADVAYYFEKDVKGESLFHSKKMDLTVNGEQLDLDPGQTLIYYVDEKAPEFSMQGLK

murine anti-Ep-CAM antibody 323/A3
Kd: 0.5 nM
